The values below come from publication PMC10620760, “Phosphorylation controls spatial and temporal activities of motor‐PRC1 complexes to complete mitosis” (The EMBO Journal, 2023).

Numbering of substitutions follows the chain as printed. Ends that are not written are not given here.

Broadly, the Kd is the equilibrium constant for the complex coming apart. As usually defined, the stoichiometry N is the number of molecules, sites or subunits per partner or assembly.

B1: 647GST‐CENP‐E_(2639–2671) (domain or fragment, human, UniProt Q02224-1 2639-2671, looked up)
chain: SPKSCFFDSRSKSLPSPHPVRYFDNSSLGLCPE
modifications: cysteine pairing not given here; also: Alexa Fluor 647 label, site not given here (degree of labelling ~1:3), GST fusion
notes: also called pAG118
B2: PRC1_(1–168) (domain or fragment, human, UniProt O43663 1-168, looked up)
chain: MRRSEVLAEESIVCLQKALNHLREIWELIGIPEDQRLQRTEVVKKHIKELLDMMIAEEESLKERLIKSISVCQKELNTLCSELHVEPFQEEGETTILQLEKDLRTQVELMRKQKKERKQELKLLQEQDQELCEILCMPHYDIDSASVPSLEELNQFRQHVTTLRETKA
notes: Dimer by SEC-MALS (52 ± 2.5 kDa measured); source: E. coli BL21-CodonPlus (DE3)-RIL, purified (HisTrap, SEC)
B3: GST‐Kif4A_(1133–1232) (domain or fragment, human, UniProt O95239 1133-1232, looked up)
chain: TQDSEGSFKLEDPTEVTPGLSFFNPVCATPNSKILKEMCDVEQVLSKKTPPAPSPFDLPELKHVATEYQENKAPGKKKKRALASNTSFFSGCSPIEEEAH
notes: also called pAG127; source: E. coli BL21-CodonPlus (DE3)-RIL, purified
B4: PRC1_(1–168) MEE (domain or fragment, human, UniProt O43663 1-168, looked up)
chain: B2 chain with M54A, E57A, E58A
notes: Vector pET Duet 1; dimer by SEC-MALS; source: E. coli BL21-CodonPlus (DE3)-RIL, purified
B5: GST‐CENP‐E_(2605–2701) 2SD (domain or fragment, human, UniProt Q02224-1 2605-2701, looked up)
chain: SPKSPKVTGTASKKKQITPSQCKERNLQDPVPKEDPKSCFFDSRSKSLPDPHPVRYFDNSSLGLCPEVQNAGAESVDSQPGPWHASSGKDVPECKTQ
notes: also called pAG96; source: E. coli BL21-CodonPlus (DE3)-RIL, purified; not shown: GST, N-terminal, kept

One data set has as its target T1, GFP‐PRC1 (human, UniProt O43663 1-620).
T1 construct: protein regulator of cytokinesis 1 (PRC1), human; Purified recombinant GFP-PRC1 of the TIRF assay; probably full length
T1 sequence (looked up): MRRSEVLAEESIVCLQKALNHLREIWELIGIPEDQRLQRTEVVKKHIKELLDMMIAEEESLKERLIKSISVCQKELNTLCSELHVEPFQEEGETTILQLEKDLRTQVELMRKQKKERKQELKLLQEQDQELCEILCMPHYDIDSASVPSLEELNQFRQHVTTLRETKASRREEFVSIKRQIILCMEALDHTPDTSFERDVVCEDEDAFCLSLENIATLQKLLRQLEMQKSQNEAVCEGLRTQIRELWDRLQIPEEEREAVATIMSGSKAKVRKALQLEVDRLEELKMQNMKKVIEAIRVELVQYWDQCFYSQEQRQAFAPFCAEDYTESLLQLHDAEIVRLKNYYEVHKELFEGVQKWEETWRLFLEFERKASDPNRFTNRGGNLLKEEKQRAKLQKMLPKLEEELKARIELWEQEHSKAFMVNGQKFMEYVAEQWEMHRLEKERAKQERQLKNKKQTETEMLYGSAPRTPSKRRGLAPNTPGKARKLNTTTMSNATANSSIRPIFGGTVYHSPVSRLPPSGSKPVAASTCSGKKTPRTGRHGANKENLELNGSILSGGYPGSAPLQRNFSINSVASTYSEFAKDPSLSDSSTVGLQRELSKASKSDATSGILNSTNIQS
The data set can be described thus: TIRF microscopy, recruitment to microtubules in vitro; GMPCPP-stabilized rhodamine microtubules mixed with 647GST-CENP-E(2639-2671) alone, GFP-PRC1 alone or both, held on coverslips by anti-tubulin antibodies; 80 mM PIPES pH 6.9, 5 mM MgCl2, 1 mM DTT, oxygen scavenger. Particulars: both partners purified.

In data set [1] the target is T2, PRC1_(1–168) (human, UniProt O43663 1-168).
T2 chain: B2 chain
The data set can be described thus: ITC. On the technique in general: ITC needs no label: the signal is the heat of the interaction.

The target of data set [2] is GST‐CENP‐E_(2605–2701) 6SD (human, UniProt Q02224-1 2605-2701, S2639D | S2647D | S2649D (printed S2469D in Table 1; S2649 in the text) | …). As to the kind of experiment: ITC.
Data set [3] deals with the molecule itself. As to the kind of experiment: SEC-MALS; 100 μl of 3.6 mg/ml PRC1(1-168) (152 μM) or 2.0 mg/ml PRC1(1-168) MEE (84 μM), Superdex-200 Increase 10/300 GL, 20 mM HEPES pH 7.4, 300 mM NaCl, 1 mM EDTA, 22°C. (Size exclusion chromatography separates by hydrodynamic size, large species first.)
Data set [4] addresses B2. The data set can be described thus: SEC; proteins mixed at equimolar (1:1) ratio, Superdex 200 Increase 10/300 GL, 20 mM HEPES pH 7.5, 300 mM NaCl, 1 mM EDTA, 1 mM DTT; fractions on Coomassie-stained SDS-PAGE. The note with it: both partners purified.
Data set [5] deals with B2. The data set can be described thus: ITC; PRC1(1-168) titrated into the CENP-E construct or peptide in the cell, 25°C, 20 mM HEPES pH 7.5, 150 mM NaCl, 0.005% Tween-20, 0.5 mM TCEP; one set of sites; concentrations calculated for monomers. The note with it: both partners purified.

Consider B1, for which the binding result with GFP‐PRC1 was “binds”.
In turn, PVRYFDNSSLG [CENP‐E peptide 2] displayed a Kd with PRC1_(1–168) [1] of 64 µM.
Regarding B2, the Kd in data set [2] was more than 100 µM. For the same molecule, the “stoichiometry N” value in data set [3] came out at 2.
For B3, the binding result in the data set with PRC1_(1–168) [4] is on record as “binds”.
As for B4, the “stoichiometry N” value in data set [3] is 2.
As to B5, the Kd with PRC1_(1–168) [5] is 2.4 µM.
In the data set with PRC1_(1–168) [1], PKSCFFDSRSK [CENP‐E peptide 1] came in with a Kd of 41.1 µM.
